Measured values taken from patent US20140315797A1, “Novel N-Terminally Modified Insulin Derivatives” (priority 2010, published 2014).
Starred links: 1 amine or outer side, 2 acyl side, 3 side chain; linkers in the order of their positions; H or OH if unused. Positions of bridges follow the written chain, without caps; N, C: chain ends. Groups on a side chain read outwards from the residue. Chains are numbered I, II in the order given. No end group written: not given here. *: point of attachment. Phe(Nα-CONH2) = NC(=O)N[C@@H](Cc1ccccc1)C(=O)*; C18 diacid = O=C(O)CCCCCCCCCCCCCCCCC(=O)*; NMe2Phe = CN(C)[C@@H](Cc1ccccc1)C(=O)*; γGlu = O=C(O)[C@H](CCC(=O)[*:2])N[*:1]; Hydantoyl = NC(=O)NCC(=O)*; AEEA = NCCOCCOCC(=O)O; Me2Gly = CN(C)CC(=O)*

Experiments:
[1] = molecular target: T1, human insulin receptor (IR-A) (Homo sapiens, UniProt P06213); test: Insulin receptor affinity, SPA antibody capture assay, 0% HSA; assay type: binding; details: relative to affinity of human insulin
Protocol: (§1) The affinity of the acylated insulin analogues of this invention for the human insulin receptor is determined by a SPA assay (Scintillation Proximity Assay) microtiterplate antibody capture assay. SPA-PVT antibody-binding beads, anti-mouse reagent (Amersham Biosciences, Cat No. PRNQ0017) are mixed with 25 ml of binding buffer (100 mM HEPES pH 7.8; 100 mM sodium chloride, 10 mM MgSO4, 0.025% Tween-20). Reagent mix for a single Packard Optiplate (Packard No. 6005190) is composed of 2.4 μl of a 1:5000 diluted purified recombinant human insulin receptor (either with or without exon 11), an amount of a stock solution of A14Tyr[^125I]-human insulin corresponding to 5000 cpm per 100 μl of reagent mix, 12 μl of a 1:1000 dilution of F12 antibody, 3 ml of SPA-beads and binding buffer to a total of 12 ml. A total of 100 μl reagent mix is then added to each well in the Packard Optiplate and a dilution series of the insulin derivative is made in the Optiplate from appropriate samples. The samples are then incubated for 16 hours while gently shaken. The phases are the then separated by centrifugation for 1 min and the plates counted in a Topcounter. The binding data were fitted using the nonlinear regression algorithm in the GraphPad Prism 2.01 (GraphPad Software, San Diego, Calif.) and affinities are expressed relative (in percentage (%)) to the affinity of human insulin.

[2] = molecular target: T1, human insulin receptor (IR-A); details: relative to affinity of human insulin; […] HSA in binding buffer
Protocol: as §1
A related assay is also used wherein the binding buffer also contains 1.5% HSA in order to mimic physiological conditions

primary rat adipocytes = test: Lipogenesis in rat adipocytes; assay type: cell-based; details: relative potency vs human insulin, unit %
Protocol: As a measure of in vitro potency of the insulins of the invention, lipogenesis can be used.
Primary rat adipocytes are isolated from the epididymale fat pads and incubated with 3H-glucose in buffer containing e.g. 0.1% fat free HSA and either standard (human insulin, HI) or insulin of the invention. The labelled glucose is converted into extractable lipids in a dose dependent way, resulting in full dose response curves.

[3] = Hydrophobicity by isocratic reverse phase HPLC (k'rel); assay type: physicochemical; details: human insulin = 1, RP-HPLC pH 7.3
Protocol: The elution time of the insulin derivative is compared to that of human insulin (herein designated HI) or another derivative with a known hydrophibicity under the same conditions. The hydrophobicity, k′rel, is calculated as: k′relderiv=((tderiv−t0)/(tref−t0))*k′relref. Using HI as reference: k′relref=k′relHI=1. The void time of the HPLC system, t0, is determined by injecting 5 μl of 0.1 mM NaNO3. Running conditions:
Column: Lichrosorb RP-C18, 5 μm, 4×250 mm
Buffer A: 0.1 M natrium phosphate pH 7.3, 10 vol % CH3CN
After running an initial gradient, the isocratic level for running the derivative and reference (for example HI) is chosen, and the elution times of the derivative and reference under isocratic conditions are used in the above equation to calculate k′relderiv.

duodenum lumen enzymes = test: Degradation of insulin analogs using duodenum lumen enzymes; details: degradation half time divided by that of reference insulin; rat duodenum enzymes, pH 7.4, 37° C.
Protocol: Degradation of insulin analogs using duodenum lumen enzymes (prepared by filtration of duodenum lumen content) from SPD rats. The assay is performed by a robot in a 96 well plate (2 ml) with 16 wells available for insulin analogs and standards. Insulin analogs ˜15 μM are incubated with duodenum enzymes in 100 mM Hepes, pH=7.4 at 37° C., samples are taken after 1, 15, 30, 60, 120 and 240 min and reaction quenched by addition of TFA. Intact insulin analogs at each point are determined by RP-HPLC. Degradation half time is determined by exponential fitting of the data and normalized to half time determined for the reference insulins, A14E, B25H, desB30 human insulin or human insulin in each assay. The amount of enzymes added for the degradation is such that the half time for degradation of the reference insulin is between 60 min and 180 min.

[4] = Chemical stability of insulin analogues formulated in lipid formulations (UPLC purity, SEC HMWP); assay type: physicochemical; details: lipid formulation, 4 weeks, 30° C.
Protocol: Chemical stability of insulin analogues formulated in lipid formulations was assessed according to the protocol described here.
Composition of the formulation: […]
Insulin to be tested (75 μM)
The insulin to be tested (lyophilised from pH 7.5) is dissolved in propylenglycol in the dark for 16 hours. Diglycerol caprylate is added ad the mixture is stirred. Tween 20 is added and the mixture is stirred for 5 minutes. The mixture is gently agitated until it is homogeneous.
Extraction-mix: 1-butanol+0.1% (w/w) Tween80, 0.1M Na2HPO4/NaH2PO4 pH 7.0 • 1. The formulations are allowed to reach room temperature. • 2. To each Eppendorf tube 20 μl of the formulations are added. • 3. Add 490 μl 1-butanol followed by addition of 990 μl of the phosphate buffer. Vortex and incubate at RT for 30 min. • 4. Vortex again and centrifuge at RT at 14000 rpm for 20 min. Analyse the bottom aqueous phase for purity and HMWP formation.
Alternatively another extraction method can be used: • 1. The formulations are allowed to reach room temperature. • 2. To each Eppendorf tube 50 μl of the formulations are added. • 3. Add 950 μl of extraction buffer. Vortex well. Immediately after, load 800 μl (2×400 μl) for purification on the spin column. See spin protocol below. Ion Exchange on Q Spin Columns from Sartorius
(In the following all spin steps are for 5 min at 2000×g.) • 1. Apply 400 μl equilibration buffer to each spin column, and spin. Discard the flow-through. • 2. Apply 2×400 μl of each extracted sample. Spin the column between each application. Discard the flow-through. • 3. Apply 400 μl washing buffer to wash each spin column, and spin. Discard the wash. • 4. Apply 400 μl elution buffer to each spin column, and spin. Analyse the elution for purity and HMWP formation
Column: Waters BEH Shield RP18 UPLC column (2.1×100 mm, 1.7 μm)
Buffer A: 0.09M di-ammonium hydrogen phosphate pH 3.0, 10% (v/v) acetonitrile
Buffer B: 90% acetonitrile.
Column: Waters Insulin HMWP SEC column
Buffer: 500 mM NaCl, 10 mM NaH2PO4, 5 mM H3PO4, 50% (v/v) 2-propanol

T1 sequence (P06213 28-746 isoform P06213-2 limits assumed): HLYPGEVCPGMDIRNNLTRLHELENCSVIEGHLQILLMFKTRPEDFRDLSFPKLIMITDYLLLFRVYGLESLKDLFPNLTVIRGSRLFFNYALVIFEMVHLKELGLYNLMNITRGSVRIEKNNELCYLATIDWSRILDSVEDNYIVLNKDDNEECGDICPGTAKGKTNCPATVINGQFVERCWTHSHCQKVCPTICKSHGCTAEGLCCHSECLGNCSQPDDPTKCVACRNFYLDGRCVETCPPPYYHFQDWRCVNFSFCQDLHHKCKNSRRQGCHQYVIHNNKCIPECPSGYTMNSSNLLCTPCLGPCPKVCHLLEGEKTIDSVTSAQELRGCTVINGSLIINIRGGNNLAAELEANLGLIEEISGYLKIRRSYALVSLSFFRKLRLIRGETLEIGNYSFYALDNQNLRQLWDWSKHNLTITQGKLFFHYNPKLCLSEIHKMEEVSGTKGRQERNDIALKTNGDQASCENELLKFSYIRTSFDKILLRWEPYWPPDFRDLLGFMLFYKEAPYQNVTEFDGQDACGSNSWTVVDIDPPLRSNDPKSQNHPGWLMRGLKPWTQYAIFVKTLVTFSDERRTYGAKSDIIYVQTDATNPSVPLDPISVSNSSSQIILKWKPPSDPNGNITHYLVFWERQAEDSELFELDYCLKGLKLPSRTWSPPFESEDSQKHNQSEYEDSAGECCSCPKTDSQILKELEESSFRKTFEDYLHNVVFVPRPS
T1 sequence (P06213 763-1382 partner limits assumed): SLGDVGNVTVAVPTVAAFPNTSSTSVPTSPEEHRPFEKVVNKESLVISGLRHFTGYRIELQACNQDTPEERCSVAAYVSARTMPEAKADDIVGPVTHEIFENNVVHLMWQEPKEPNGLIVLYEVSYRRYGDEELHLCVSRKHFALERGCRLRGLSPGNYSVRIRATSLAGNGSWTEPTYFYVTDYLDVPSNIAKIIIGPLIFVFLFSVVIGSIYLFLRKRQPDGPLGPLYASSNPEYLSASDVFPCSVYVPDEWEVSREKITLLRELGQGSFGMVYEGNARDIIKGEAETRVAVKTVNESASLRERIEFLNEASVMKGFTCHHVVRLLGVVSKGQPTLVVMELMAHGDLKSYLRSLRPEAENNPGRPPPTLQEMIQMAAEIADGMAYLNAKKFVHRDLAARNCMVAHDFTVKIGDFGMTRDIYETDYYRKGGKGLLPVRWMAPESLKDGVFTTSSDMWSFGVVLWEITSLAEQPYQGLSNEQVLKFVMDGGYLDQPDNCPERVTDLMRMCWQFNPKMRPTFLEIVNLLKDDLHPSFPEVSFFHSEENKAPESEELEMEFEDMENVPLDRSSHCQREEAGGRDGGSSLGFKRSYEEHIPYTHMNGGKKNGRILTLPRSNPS

Row | Substance | Relative IR-A affinity (@ 0% HSA) (%) [1] [%] | Relative IR-A affinity (@ […] HSA) (%)e [2] [%] | Lipogenesis in rat adipocytres (@ 0.1% HSA) rel. to human insulin (primary rat adipocytes) [%] | Hydrophobicity rel. to human insulin [3] | Duodenum degradation. Relative stability vs. A14E, B25H, desB30 human insulin (duodenum lumen enzymes) | HMWP formed (%) 4 weeks [4] [%] | Impurities formed (%) 4 weeks [4] [%]
1 | A1G(N^α, N^α-Dimethyl), A14E, B1F(N(alpha), N(N^α, N^α-dimethyl), B25H, desB27, B29K(N^εhexadecanedioyl-gGlu-2xOEG), desB30 human insulin [Example 9] | 2.5 | 0.33 | 1.34 | 0.10 | 9.2 |  | 
2 | I: NMe2Phe-VNQHLCGSHLVEALYLVCGERGFHYTPK([AEEA-AEEA-γGlu-C18 diacid]) / II: Me2Gly-IVEQCCTSICSLEQLENYCN (disulfide I:6-II:6, I:18-II:19, II:5-II:10) [Example 1, A1(N^α, N^α-Dimethyl), A14E, B1(N^α, N^α-dimethyl), B25H, B29K(N^εoctadecanedioyl-gGlu-2xOEG), desB30 human insulin] | 1.5 | 0.09 | 0.10 | 0.38 | 1.2 | 0.4 | 9.8
3 | I: {Phe(Nα-CONH2)}-VNQHLCGSHLVEALYLVCGERGFHYTPK([AEEA-AEEA-γGlu-C18 diacid]) / II: Hydantoyl-IVEQCCTSICSLEQLENYCN (disulfide I:6-II:6, I:18-II:19, II:5-II:10) [Example 12, A1(N^αCarbamoyl), A14E, B1(N^αCarbamoyl), B25H, B29K(N^εoctadecanedioyl-gGlu-2xOEG), desB30 human insulin] | 0.3 | 0.06 | 0.02 | 0.15 | 1.5 | 0.2 | 4.4
